Test results published in CN104231083A (GMAX BIOPHARM CO LTD, dated 2014).

B1: 单克隆抗体A-3 (antibody, V domains shown)
VH: EVKLVESGGGLVQPGGSRKLSCAASGFPFSDYGLAWFRQAPGKGPEWVAFISNLAYSTYYADTVTGRFTISRENAKNTLFLEMSSLRSEDTAMYYCARDRGLFDYWGQGTTLTVSS
VL: DVVMTQIPLSLPVSLGDQASISCRSSQSLVHSNGNTYLHWYLQKPGQSPKLLIYKVSNRFSGVPDRFSGSGSGTDFTLKISRVEAEDLGVYFCSQSTHVPPYTFGGGTKLEIKR
notes: Mouse monoclonal antibody; Tested as hybridoma supernatant (FACS) and as purified antibody / antibody supernatant (cAMP assay); also called L3H3
B2: 单克隆抗体A-1 (antibody, V domains shown)
VH: QIQLVQSGPELKKPGETVKISCKASGYTFTNYGMNWVKQAPGKGLKWMGWINTNTGEPTYVEEFKGRFAFSLETSDSTAYLQINNLKNEDTATYFCANLYWGQGTTLTVSS
VL: DVLMTQTPLSLPVSLGDQASISCRSSQNILHSNGNTYLEWYLQKPGQSPKLLIFKVSNRFSGVPDRFSGSGSGTDFTLKISRVEAEDLGVYYCFQGSHVPWTFGGGTKLEIK
notes: Mouse monoclonal antibody; Tested as hybridoma supernatant (FACS) and as purified antibody / antibody supernatant (cAMP assay); also called L1H1
B3: 单克隆抗体A-2 (antibody, V domains shown)
VH: QIQLVQSGPELKKPGETVKISCKASGYTFTNYGMNWVKQAPGKGLKWMGWINTYNGEPTYADDFKGRCAFFLETSASTAYLQLNNLKNEDTATYFCTREYYISNYGAMDYWGQGTSVTVSS
VL: DIQMTQTTSSLSASLGDRVTISCRASQDISNYLNWYQQKPDGTVKLLIYYTSRLHSGVPSRFSGSGSGADYSLTIANLDQEDIATYFCQQGILFPLTFGAGTKLELK
notes: Mouse monoclonal antibody; Tested as hybridoma supernatant (FACS) and as purified antibody / antibody supernatant (cAMP assay); also called L2H2

molecular target: T1, 人胰高血糖素受体 (human glucagon receptor) (human, UniProt P47871 26-477); assay: flow cytometry, hybridoma supernatant on CHO-DHFR-hGCGR cells
T1 construct: Overexpressed on stably transfected CHO-DHFR- cells; also called hGCGR; GCGR
T1 sequence (P47871 26-477 limits assumed): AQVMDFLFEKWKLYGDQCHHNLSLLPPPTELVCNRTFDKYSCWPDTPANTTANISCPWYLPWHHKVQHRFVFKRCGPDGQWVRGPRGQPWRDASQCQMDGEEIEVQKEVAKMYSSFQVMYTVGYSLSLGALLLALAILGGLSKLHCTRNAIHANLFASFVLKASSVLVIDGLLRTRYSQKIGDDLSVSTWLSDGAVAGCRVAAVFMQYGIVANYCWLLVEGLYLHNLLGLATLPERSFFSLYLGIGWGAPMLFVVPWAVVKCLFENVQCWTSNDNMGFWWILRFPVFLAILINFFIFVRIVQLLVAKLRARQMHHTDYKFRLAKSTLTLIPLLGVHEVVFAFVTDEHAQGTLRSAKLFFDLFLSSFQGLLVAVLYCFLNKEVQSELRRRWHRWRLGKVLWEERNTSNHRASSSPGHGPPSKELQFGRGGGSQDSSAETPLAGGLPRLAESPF

Binding result, binds:
B1
B2
B3
